Tested on: Purified recombinant SF2

Recombinant IKKi
in vitro kinase assay: IKKi indeed was able to phosphorylate SF2 in vitro
